In article PMC7669869 (2020):
One block for each binder: values may come before it.

Columns and labels:
[1] = molecular target: JT006 (UniProt Q15848 155-161, Tyr159 was replaced with Ser | Asp was applied to substitute Ala161, unnatural amino acid Nva incorporated (position not given); FITC labeled peptide in the cell imaging); assay: FRET; table row labelled IC50, legend says Kd
[2] = molecular target: ADP355; assay: FRET; table row labelled IC50, legend says Kd

Kd [1]: 1200 nM
B1: AdipoR2 (overexpressed in HEK293 cells) (receptor)
chain: MNEPTENRLGCSRTPEPDIRLRKGHQLDGTRRGDNDSHQGDLEPILEASVLSSHHKKSSEEHEYSDEAPQEDEGFMGMSPLLQAHHAMEKMEEFVCKVWEGRWRVIPHDVLPDWLKDNDFLLHGHRPPMPSFRACFKSIFRIHTETGNIWTHLLGCVFFLCLGIFYMFRPNISFVAPLQEKVVFGLFFLGAILCLSFSWLFHTVYCHSEGVSRLFSKLDYSGIALLIMGSFVPWLYYSFYCNPQPCFIYLIVICVLGIAAIIVSQWDMFATPQYRGVRAGVFLGLGLSGIIPTLHYVISEGFLKAATIGQIGWLMLMASLYITGAALYAARIPERFFPGKCDIWFHSHQLFHIFVVAGAFVHFHGVSNLQEFRFMIGGGCSEEDAL

Kd [2]: 1100 nM
Kd [1]: 1400 nM
B2: AdipoR1 (overexpressed in HEK293 cells) (receptor)
chain: MSSHKGSVVAQGNGAPASNREADTVELAELGPLLEEKGKRVIANPPKAEEEQTCPVPQEEEEEVRVLTLPLQAHHAMEKMEEFVYKVWEGRWRVIPYDVLPDWLKDNDYLLHGHRPPMPSFRACFKSIFRIHTETGNIWTHLLGFVLFLFLGILTMLRPNMYFMAPLQEKVVFGMFFLGAVLCLSFSWLFHTVYCHSEKVSRTFSKLDYSGIALLIMGSFVPWLYYSFYCSPQPRLIYLSIVCVLGISAIIVAQWDRFATPKHRQTRAGVFLGLGLSGVVPTMHFTIAEGFVKATTVGQMGWFFLMAVMYITGAGLYAARIPERFFPGKFDIWFQSHQIFHVLVVAAAFVHFYGVSNLQEFRYGLEGGCTDDTLL
